Test results: PMC3773608 (Journal of molecular neuroscience : MN, 2009)

Target: GST-PSD-95 (rat, UniProt P31016 1-724)
Test: co-IP

Chain of GST-PSD-95 (P31016 whole entry): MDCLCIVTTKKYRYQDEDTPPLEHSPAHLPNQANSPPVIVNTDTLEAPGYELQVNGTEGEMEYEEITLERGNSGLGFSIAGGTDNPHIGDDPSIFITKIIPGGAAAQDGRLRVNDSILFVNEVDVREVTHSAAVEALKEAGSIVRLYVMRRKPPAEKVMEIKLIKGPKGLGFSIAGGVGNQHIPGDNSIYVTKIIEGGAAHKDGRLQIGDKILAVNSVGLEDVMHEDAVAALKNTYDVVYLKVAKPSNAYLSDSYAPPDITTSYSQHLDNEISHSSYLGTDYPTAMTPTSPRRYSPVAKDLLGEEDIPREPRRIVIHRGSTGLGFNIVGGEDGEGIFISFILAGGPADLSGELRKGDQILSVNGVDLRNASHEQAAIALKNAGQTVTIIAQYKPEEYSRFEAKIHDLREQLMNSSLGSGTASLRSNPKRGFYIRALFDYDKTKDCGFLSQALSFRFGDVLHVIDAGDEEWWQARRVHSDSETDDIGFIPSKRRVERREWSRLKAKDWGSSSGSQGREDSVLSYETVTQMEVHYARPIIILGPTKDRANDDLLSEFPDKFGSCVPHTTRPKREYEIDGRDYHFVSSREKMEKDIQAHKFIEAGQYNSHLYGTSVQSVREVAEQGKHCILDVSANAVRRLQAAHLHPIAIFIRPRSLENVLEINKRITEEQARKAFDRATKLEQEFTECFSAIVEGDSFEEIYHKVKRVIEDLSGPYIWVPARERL

- binding result: binds
B1: GST-ILK (enzyme, rat, UniProt Q99J82 1-452, looked up)
chain: MDDIFTQCREGNAVAVRLWLDNTENDLNQGDDHGFSPLHWACREGRSAVVEMLIMRGARINVMNRGDDTPLHLAASHGHRDIVQKLLQYKADINAVNEHGNVPLHYACFWGQDQVAEDLVANGALVSICNKYGEMPVDKAKAPLRELLRERAEKMGQNLNRIPYKDTFWKGTTRTRPRNGTLNKHSGIDFKQLNFLAKLNENHSGELWKGRWQGNDIVVKVLKVRDWSTRKSRDFNEECPRLRIFSHPNVLPVLGACQAPPAPHPTLITHWMPYGSLYNVLHEGTNFVVDQSQAVKFALDMARGMAFLHTLEPLIPRHALNSRSVMIDEDMTARISMADVKFSFQCPGRMYAPAWVAPEALQKKPEDTNRRSADMWSFAVLLWELVTREVPFADLSNMEIGMKVALEGLRPTIPPGISPHVCKLMKICMNEDPAKRPKFDMIVPILEKMQDK
